Data: paper PMC10020352

Molecular target: Mu-opioid receptor, P35372
Sequence (P35372 whole entry): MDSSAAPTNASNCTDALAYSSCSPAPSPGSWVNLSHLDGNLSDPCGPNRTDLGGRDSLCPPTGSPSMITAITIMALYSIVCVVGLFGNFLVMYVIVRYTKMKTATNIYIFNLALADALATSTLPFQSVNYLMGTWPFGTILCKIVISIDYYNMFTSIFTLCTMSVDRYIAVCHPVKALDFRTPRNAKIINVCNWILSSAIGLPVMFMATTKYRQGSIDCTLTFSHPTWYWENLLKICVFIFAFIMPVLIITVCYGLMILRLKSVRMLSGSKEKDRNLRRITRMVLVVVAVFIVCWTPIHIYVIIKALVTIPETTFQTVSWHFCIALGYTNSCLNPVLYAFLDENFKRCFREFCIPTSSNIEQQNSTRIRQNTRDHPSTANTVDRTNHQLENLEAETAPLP

Binder: YGGFLRR (modifications not checked) [Dyn1-7]
- Activity (EC50, nM) for cAMP in MOP receptor over-expressing HEK293 cells: 3740 nM
